What all share (experiment): cell-based or functional assay
One assay deals with human glucagon receptor (human, UniProt P47871 26-477).
Another assay concerns the target T1, human GIP receptor (human, UniProt P48546 22-466).
T1 sequence (looked up): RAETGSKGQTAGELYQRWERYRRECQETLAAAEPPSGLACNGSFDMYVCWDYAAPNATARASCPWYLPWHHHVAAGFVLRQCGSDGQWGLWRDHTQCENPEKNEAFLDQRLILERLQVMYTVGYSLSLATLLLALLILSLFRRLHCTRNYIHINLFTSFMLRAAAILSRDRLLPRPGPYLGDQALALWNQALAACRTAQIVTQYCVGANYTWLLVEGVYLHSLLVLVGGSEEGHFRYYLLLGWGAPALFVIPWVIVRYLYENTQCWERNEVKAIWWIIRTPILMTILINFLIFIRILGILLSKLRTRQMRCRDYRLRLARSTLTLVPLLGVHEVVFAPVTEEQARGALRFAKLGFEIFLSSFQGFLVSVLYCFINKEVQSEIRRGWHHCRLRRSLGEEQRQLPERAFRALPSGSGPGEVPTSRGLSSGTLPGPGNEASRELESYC

The next assay concerns the target human GLP-1 receptor (human, UniProt P43220 24-463).

Numbered stars: 1 amine (or outer) side, 2 acyl side, 3 side chain; on linkers, the order of the positions; unused ones are H or OH. Square brackets hold non-standard residues; d marks the D form. Side chains are listed from the residue outwards. Ends that are not written are not given here. * marks the point of attachment. γGlu = O=C(O)[C@H](CCC(=O)[*:2])N[*:1]; Stearoyl = CCCCCCCCCCCCCCCCCC(=O)*; Palmitoyl = CCCCCCCCCCCCCCCC(=O)*; AEEA = NCCOCCOCC(=O)O; Aib = CC(C)(N)C(=O)O

Chain of human glucagon receptor (P47871 26-477): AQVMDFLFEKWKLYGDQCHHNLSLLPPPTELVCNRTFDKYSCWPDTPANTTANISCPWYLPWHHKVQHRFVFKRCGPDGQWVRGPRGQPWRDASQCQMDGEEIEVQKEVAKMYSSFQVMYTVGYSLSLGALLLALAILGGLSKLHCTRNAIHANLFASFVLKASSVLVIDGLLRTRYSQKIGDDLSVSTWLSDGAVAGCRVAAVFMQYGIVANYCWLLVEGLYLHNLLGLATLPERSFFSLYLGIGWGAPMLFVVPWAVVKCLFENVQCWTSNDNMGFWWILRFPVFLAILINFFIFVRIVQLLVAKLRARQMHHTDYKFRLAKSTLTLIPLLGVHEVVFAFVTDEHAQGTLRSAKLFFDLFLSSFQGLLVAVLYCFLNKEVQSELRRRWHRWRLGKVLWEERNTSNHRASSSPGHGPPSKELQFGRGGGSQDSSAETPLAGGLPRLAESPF

B1: SEQ ID NO: 16 (peptide)
peptide: H[Aib]HGTFTSDLSKLK([γGlu-Palmitoyl])EEQRQ[Aib]EFIEWLKA[dA]GPPS[Aib]KPPPK-NH2
modifications: N-terminus assumed
SMILES: CCCCCCCCCCCCCCCC(=O)N[C@@H](CCC(=O)NCCCC[C@H](NC(=O)[C@H](CC(C)C)NC(=O)[C@H](CCCCN)NC(=O)[C@H](CO)NC(=O)[C@H](CC(C)C)NC(=O)[C@H](CC(=O)O)NC(=O)[C@H](CO)NC(=O)[C@@H](NC(=O)[C@H](Cc1ccccc1)NC(=O)[C@@H](NC(=O)CNC(=O)[C@H](Cc1c[nH]cn1)NC(=O)C(C)(C)NC(=O)[C@@H](N)Cc1c[nH]cn1)[C@@H](C)O)[C@@H](C)O)C(=O)N[C@@H](CCC(=O)O)C(=O)N[C@@H](CCC(=O)O)C(=O)N[C@@H](CCC(N)=O)C(=O)N[C@@H](CCCNC(=N)N)C(=O)N[C@@H](CCC(N)=O)C(=O)NC(C)(C)C(=O)N[C@@H](CCC(=O)O)C(=O)N[C@@H](Cc1ccccc1)C(=O)N[C@H](C(=O)N[C@@H](CCC(=O)O)C(=O)N[C@@H](Cc1c[nH]c2ccccc12)C(=O)N[C@@H](CC(C)C)C(=O)N[C@@H](CCCCN)C(=O)N[C@@H](C)C(=O)N[C@H](C)C(=O)NCC(=O)N1CCC[C@H]1C(=O)N1CCC[C@H]1C(=O)N[C@@H](CO)C(=O)NC(C)(C)C(=O)N[C@@H](CCCCN)C(=O)N1CCC[C@H]1C(=O)N1CCC[C@H]1C(=O)N1CCC[C@H]1C(=O)N[C@@H](CCCCN)C(N)=O)[C@@H](C)CC)C(=O)O
Turning to B1, the “EC50 hGlucagon R (cAMP formation)” value with human glucagon receptor is 4.3 pM. Besides, the “EC50 hGIP R (cAMP formation)” value with human GIP receptor came to 3.7 pM. Also, the “EC50 hGLP-1R (cAMP formation)” value in the assay with human GLP-1 receptor turned out to be 7.1 pM.

B2: SEQ ID NO: 17 (peptide)
peptide: H[Aib]HGTFTSDLSKLK([γGlu-Stearoyl])EEQRQ[Aib]EFIEWLKA[dA]GPPS[Aib]KPPPK-NH2
modifications: N-terminus assumed
SMILES: CCCCCCCCCCCCCCCCCC(=O)N[C@@H](CCC(=O)NCCCC[C@H](NC(=O)[C@H](CC(C)C)NC(=O)[C@H](CCCCN)NC(=O)[C@H](CO)NC(=O)[C@H](CC(C)C)NC(=O)[C@H](CC(=O)O)NC(=O)[C@H](CO)NC(=O)[C@@H](NC(=O)[C@H](Cc1ccccc1)NC(=O)[C@@H](NC(=O)CNC(=O)[C@H](Cc1c[nH]cn1)NC(=O)C(C)(C)NC(=O)[C@@H](N)Cc1c[nH]cn1)[C@@H](C)O)[C@@H](C)O)C(=O)N[C@@H](CCC(=O)O)C(=O)N[C@@H](CCC(=O)O)C(=O)N[C@@H](CCC(N)=O)C(=O)N[C@@H](CCCNC(=N)N)C(=O)N[C@@H](CCC(N)=O)C(=O)NC(C)(C)C(=O)N[C@@H](CCC(=O)O)C(=O)N[C@@H](Cc1ccccc1)C(=O)N[C@H](C(=O)N[C@@H](CCC(=O)O)C(=O)N[C@@H](Cc1c[nH]c2ccccc12)C(=O)N[C@@H](CC(C)C)C(=O)N[C@@H](CCCCN)C(=O)N[C@@H](C)C(=O)N[C@H](C)C(=O)NCC(=O)N1CCC[C@H]1C(=O)N1CCC[C@H]1C(=O)N[C@@H](CO)C(=O)NC(C)(C)C(=O)N[C@@H](CCCCN)C(=O)N1CCC[C@H]1C(=O)N1CCC[C@H]1C(=O)N1CCC[C@H]1C(=O)N[C@@H](CCCCN)C(N)=O)[C@@H](C)CC)C(=O)O
Consider B2, for which the “EC50 hGlucagon R (cAMP formation)” value with human glucagon receptor came out at 5.3 pM. Also, in the assay with human GIP receptor, the “EC50 hGIP R (cAMP formation)” value amounted to 7.3 pM. Also, the “EC50 hGLP-1R (cAMP formation)” value in the assay with human GLP-1 receptor worked out at 6.4 pM.

B3: SEQ ID NO: 14 (peptide)
peptide: H[Aib]HGTFTSDLSKLK([γGlu-γGlu-AEEA-Palmitoyl])EEQRQKEFIEWLKAGGHPS[Aib]KPPPK-NH2
modifications: N-terminus assumed
SMILES: CCCCCCCCCCCCCCCC(=O)NCCOCCOCC(=O)N[C@@H](CCC(=O)N[C@@H](CCC(=O)NCCCC[C@H](NC(=O)[C@H](CC(C)C)NC(=O)[C@H](CCCCN)NC(=O)[C@H](CO)NC(=O)[C@H](CC(C)C)NC(=O)[C@H](CC(=O)O)NC(=O)[C@H](CO)NC(=O)[C@@H](NC(=O)[C@H](Cc1ccccc1)NC(=O)[C@@H](NC(=O)CNC(=O)[C@H](Cc1c[nH]cn1)NC(=O)C(C)(C)NC(=O)[C@@H](N)Cc1c[nH]cn1)[C@@H](C)O)[C@@H](C)O)C(=O)N[C@@H](CCC(=O)O)C(=O)N[C@@H](CCC(=O)O)C(=O)N[C@@H](CCC(N)=O)C(=O)N[C@@H](CCCNC(=N)N)C(=O)N[C@@H](CCC(N)=O)C(=O)N[C@@H](CCCCN)C(=O)N[C@@H](CCC(=O)O)C(=O)N[C@@H](Cc1ccccc1)C(=O)N[C@H](C(=O)N[C@@H](CCC(=O)O)C(=O)N[C@@H](Cc1c[nH]c2ccccc12)C(=O)N[C@@H](CC(C)C)C(=O)N[C@@H](CCCCN)C(=O)N[C@@H](C)C(=O)NCC(=O)NCC(=O)N[C@@H](Cc1c[nH]cn1)C(=O)N1CCC[C@H]1C(=O)N[C@@H](CO)C(=O)NC(C)(C)C(=O)N[C@@H](CCCCN)C(=O)N1CCC[C@H]1C(=O)N1CCC[C@H]1C(=O)N1CCC[C@H]1C(=O)N[C@@H](CCCCN)C(N)=O)[C@@H](C)CC)C(=O)O)C(=O)O
Take B3: the “EC50 hGlucagon R (cAMP formation)” value with human glucagon receptor came out at 3.4 pM. Besides, in the assay with human GIP receptor, the “EC50 hGIP R (cAMP formation)” value was 1.2 pM. Moreover, the “EC50 hGLP-1R (cAMP formation)” value in the assay with human GLP-1 receptor was found to be 0.9 pM.

B4: SEQ ID NO: 15 (peptide)
peptide: H[Aib]HGTFTSDLSKLK([γGlu-γGlu-AEEA-Palmitoyl])EEQRQKEFIEWLKA[dA]GHPS[Aib]KPPPK-NH2
modifications: N-terminus assumed
SMILES: CCCCCCCCCCCCCCCC(=O)NCCOCCOCC(=O)N[C@@H](CCC(=O)N[C@@H](CCC(=O)NCCCC[C@H](NC(=O)[C@H](CC(C)C)NC(=O)[C@H](CCCCN)NC(=O)[C@H](CO)NC(=O)[C@H](CC(C)C)NC(=O)[C@H](CC(=O)O)NC(=O)[C@H](CO)NC(=O)[C@@H](NC(=O)[C@H](Cc1ccccc1)NC(=O)[C@@H](NC(=O)CNC(=O)[C@H](Cc1c[nH]cn1)NC(=O)C(C)(C)NC(=O)[C@@H](N)Cc1c[nH]cn1)[C@@H](C)O)[C@@H](C)O)C(=O)N[C@@H](CCC(=O)O)C(=O)N[C@@H](CCC(=O)O)C(=O)N[C@@H](CCC(N)=O)C(=O)N[C@@H](CCCNC(=N)N)C(=O)N[C@@H](CCC(N)=O)C(=O)N[C@@H](CCCCN)C(=O)N[C@@H](CCC(=O)O)C(=O)N[C@@H](Cc1ccccc1)C(=O)N[C@H](C(=O)N[C@@H](CCC(=O)O)C(=O)N[C@@H](Cc1c[nH]c2ccccc12)C(=O)N[C@@H](CC(C)C)C(=O)N[C@@H](CCCCN)C(=O)N[C@@H](C)C(=O)N[C@H](C)C(=O)NCC(=O)N[C@@H](Cc1c[nH]cn1)C(=O)N1CCC[C@H]1C(=O)N[C@@H](CO)C(=O)NC(C)(C)C(=O)N[C@@H](CCCCN)C(=O)N1CCC[C@H]1C(=O)N1CCC[C@H]1C(=O)N1CCC[C@H]1C(=O)N[C@@H](CCCCN)C(N)=O)[C@@H](C)CC)C(=O)O)C(=O)O
Turning to B4, the “EC50 hGlucagon R (cAMP formation)” value with human glucagon receptor worked out at 4.5 pM. The “EC50 hGIP R (cAMP formation)” value with human GIP receptor stood at 1.8 pM. Moreover, in the assay with human GLP-1 receptor, the “EC50 hGLP-1R (cAMP formation)” value amounted to 1.1 pM.

For the origin of these results see patent US20180155406A1 (Sanofi, published 2018).
